In patent publication US20250171562A1 (ALK ABELL, published 2025):

Target: T1, recombinant human IgE (human, UniProt P01854-1 1-428)
T1 construct: made in-house (ALK); preloaded on immobilised FcεRIα in the displacement ELISA
Assay: IgE-FcεRIα displacement ELISA
Procedure, shortened: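 Streptavidin-coated plates carried site-specifically biotinylated recombinant human FcεRIα, loaded with recombinant human IgE at 13 ng/ml. sdAbs in a pM–μM series were added for 1 h, and displaced IgE was washed off. Percent displacement was the signal reduction versus the no-sdAb control, giving EC50 and maximal effect.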

T1 sequence (P01854 other isoform, or with tags, fused parts or gaps): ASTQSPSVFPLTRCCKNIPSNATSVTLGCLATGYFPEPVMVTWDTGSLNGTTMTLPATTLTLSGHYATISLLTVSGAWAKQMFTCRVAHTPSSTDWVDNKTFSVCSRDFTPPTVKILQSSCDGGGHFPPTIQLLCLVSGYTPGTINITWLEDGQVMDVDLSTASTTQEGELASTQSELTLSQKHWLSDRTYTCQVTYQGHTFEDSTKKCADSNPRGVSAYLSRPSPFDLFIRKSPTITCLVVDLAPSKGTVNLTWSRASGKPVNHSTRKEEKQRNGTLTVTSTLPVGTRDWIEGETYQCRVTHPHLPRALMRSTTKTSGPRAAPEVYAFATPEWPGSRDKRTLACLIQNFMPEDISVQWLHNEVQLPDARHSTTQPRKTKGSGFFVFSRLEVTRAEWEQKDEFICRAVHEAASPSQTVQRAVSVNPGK

Binder	Max effect	EC50
NIgG4F4A1(G4S)1 (Fc fusion) chain 1: DVQLQESGGGLVQAGGSLRLSCAVSGLSFSSMGWFRQPPGKEREFVAAISLYSGSTYYADSVKGRFTISSDNAKSTVYLQMNSLKPEDAAVYFCAADRQRTWSTFYASRQATYNYWGQGTQVTVTSGGGGSGPPCPPCPAPEFLGGPSVFLFPPKPKDTLMISRTPEVTCVVVDVSQEDPEVQFNWYVDGVEVHNAKTKPREEQFNSTYRVVSVLTVLHQDWLNGKEYKCKVSNKGLPSSIEKTISKAKGQPREPQVYTLPPCQEEMTKNQVSLWCLVKGFYPSDIAVEWESNGQPENNYKTTPPVLDSDGSFFLYSRLTVDKSRWQEGNVFSCSVMHEALHNHYTQKSLSLSLGK chain 2: EVQLLESGGGLVQPGGSLRLSCAASGFTFGNYDMAWVRQAPGKRPEWVSSIDTGGDITHYADSVKGRFTISRDNAKNTLYLQMNSLRPEDTAVYWCATDEEYALGPNEFDYYGQGTLVTVSSGGGGSGPPCPPCPAPEFLGGPSVFLFPPKPKDTLMISRTPEVTCVVVDVSQEDPEVQFNWYVDGVEVHNAKTKPREEQFNSTYRVVSVLTVLHQDWLNGKEYKCKVSNKGLPSSIEKTISKAKGQPREPQVCTLPPSQEEMTKNQVSLSCAVKGFYPSDIAVEWESNGQPENNYKTTPPVLDSDGSFFLVSRLTVDKSRWQEGNVFSCSVMHEALHNHYTQKSLSLSLGK	> 95%	–
CIgG4F3A1(G4S)3 (Fc fusion) chain 1: GPPCPPCPAPEFLGGPSVFLFPPKPKDTLMISRTPEVTCVVVDVSQEDPEVQFNWYVDGVEVHNAKTKPREEQFNSTYRVVSVLTVLHQDWLNGKEYKCKVSNKGLPSSIEKTISKAKGQPREPQVYTLPPCQEEMTKNQVSLWCLVKGFYPSDIAVEWESNGQPENNYKTTPPVLDSDGSFFLYSRLTVDKSRWQEGNVFSCSVMHEALHNHYTQKSLSLSLGKGGGGSGGGGSGGGGSDVQLQESGGGLVQAGGSLKLSCAASRGSLSRWDVAWFRQAPGKERSFVTRISWSGTTSYYADAVKGRFAISRDNAKNTVYLQMNSLKPEDTAVYYCAVALYGNRGYYDVNAHSYWGQGTQVTVS chain 2: GPPCPPCPAPEFLGGPSVFLFPPKPKDTLMISRTPEVTCVVVDVSQEDPEVQFNWYVDGVEVHNAKTKPREEQFNSTYRVVSVLTVLHQDWLNGKEYKCKVSNKGLPSSIEKTISKAKGQPREPQVCTLPPSQEEMTKNQVSLSCAVKGFYPSDIAVEWESNGQPENNYKTTPPVLDSDGSFFLVSRLTVDKSRWQEGNVFSCSVMHEALHNHYTQKSLSLSLGKGGGGSGGGGSGGGGSEVQLLESGGGLVQPGGSLRLSCAASGFTFGNYDMAWVRQAPGKRPEWVSSIDTGGDITHYADSVKGRFTISRDNAKNTLYLQMNSLRPEDTAVYWCATDEEYALGPNEFDYYGQGTLVTVSS	90%	24 nM
NIgG4F4A1(RS) (Fc fusion) chain 1: DVQLQESGGGLVQAGGSLRLSCAVSGLSFSSMGWFRQPPGKEREFVAAISLYSGSTYYADSVKGRFTISSDNAKSTVYLQMNSLKPEDAAVYFCAADRQRTWSTFYASRQATYNYWGQGTQVTVTSRSGPPCPPCPAPEFLGGPSVFLFPPKPKDTLMISRTPEVTCVVVDVSQEDPEVQFNWYVDGVEVHNAKTKPREEQFNSTYRVVSVLTVLHQDWLNGKEYKCKVSNKGLPSSIEKTISKAKGQPREPQVYTLPPCQEEMTKNQVSLWCLVKGFYPSDIAVEWESNGQPENNYKTTPPVLDSDGSFFLYSRLTVDKSRWQEGNVFSCSVMHEALHNHYTQKSLSLSLGK chain 2: EVQLLESGGGLVQPGGSLRLSCAASGFTFGNYDMAWVRQAPGKRPEWVSSIDTGGDITHYADSVKGRFTISRDNAKNTLYLQMNSLRPEDTAVYWCATDEEYALGPNEFDYYGQGTLVTVSSRSGPPCPPCPAPEFLGGPSVFLFPPKPKDTLMISRTPEVTCVVVDVSQEDPEVQFNWYVDGVEVHNAKTKPREEQFNSTYRVVSVLTVLHQDWLNGKEYKCKVSNKGLPSSIEKTISKAKGQPREPQVCTLPPSQEEMTKNQVSLSCAVKGFYPSDIAVEWESNGQPENNYKTTPPVLDSDGSFFLVSRLTVDKSRWQEGNVFSCSVMHEALHNHYTQKSLSLSLGK	> 95%	–
NIgG4F4A1(G4S)2 (Fc fusion) chain 1: DVQLQESGGGLVQAGGSLRLSCAVSGLSFSSMGWFRQPPGKEREFVAAISLYSGSTYYADSVKGRFTISSDNAKSTVYLQMNSLKPEDAAVYFCAADRQRTWSTFYASRQATYNYWGQGTQVTVTSGGGGSGGGGSGPPCPPCPAPEFLGGPSVFLFPPKPKDTLMISRTPEVTCVVVDVSQEDPEVQFNWYVDGVEVHNAKTKPREEQFNSTYRVVSVLTVLHQDWLNGKEYKCKVSNKGLPSSIEKTISKAKGQPREPQVYTLPPCQEEMTKNQVSLWCLVKGFYPSDIAVEWESNGQPENNYKTTPPVLDSDGSFFLYSRLTVDKSRWQEGNVFSCSVMHEALHNHYTQKSLSLSLGK chain 2: EVQLLESGGGLVQPGGSLRLSCAASGFTFGNYDMAWVRQAPGKRPEWVSSIDTGGDITHYADSVKGRFTISRDNAKNTLYLQMNSLRPEDTAVYWCATDEEYALGPNEFDYYGQGTLVTVSSGGGGSGGGGSGPPCPPCPAPEFLGGPSVFLFPPKPKDTLMISRTPEVTCVVVDVSQEDPEVQFNWYVDGVEVHNAKTKPREEQFNSTYRVVSVLTVLHQDWLNGKEYKCKVSNKGLPSSIEKTISKAKGQPREPQVCTLPPSQEEMTKNQVSLSCAVKGFYPSDIAVEWESNGQPENNYKTTPPVLDSDGSFFLVSRLTVDKSRWQEGNVFSCSVMHEALHNHYTQKSLSLSLGK	> 95%	–
CIgG4F3A1(G4S)2 (Fc fusion) chain 1: GPPCPPCPAPEFLGGPSVFLFPPKPKDTLMISRTPEVTCVVVDVSQEDPEVQFNWYVDGVEVHNAKTKPREEQFNSTYRVVSVLTVLHQDWLNGKEYKCKVSNKGLPSSIEKTISKAKGQPREPQVYTLPPCQEEMTKNQVSLWCLVKGFYPSDIAVEWESNGQPENNYKTTPPVLDSDGSFFLYSRLTVDKSRWQEGNVFSCSVMHEALHNHYTQKSLSLSLGKGGGGSGGGGSDVQLQESGGGLVQAGGSLKLSCAASRGSLSRWDVAWFRQAPGKERSFVTRISWSGTTSYYADAVKGRFAISRDNAKNTVYLQMNSLKPEDTAVYYCAVALYGNRGYYDVNAHSYWGQGTQVTVS chain 2: GPPCPPCPAPEFLGGPSVFLFPPKPKDTLMISRTPEVTCVVVDVSQEDPEVQFNWYVDGVEVHNAKTKPREEQFNSTYRVVSVLTVLHQDWLNGKEYKCKVSNKGLPSSIEKTISKAKGQPREPQVCTLPPSQEEMTKNQVSLSCAVKGFYPSDIAVEWESNGQPENNYKTTPPVLDSDGSFFLVSRLTVDKSRWQEGNVFSCSVMHEALHNHYTQKSLSLSLGKGGGGSGGGGSEVQLLESGGGLVQPGGSLRLSCAASGFTFGNYDMAWVRQAPGKRPEWVSSIDTGGDITHYADSVKGRFTISRDNAKNTLYLQMNSLRPEDTAVYWCATDEEYALGPNEFDYYGQGTLVTVSS	80%	41 nM

Other lines, results leading:

Max effect	EC50	Binder
> 95%	–	NIgG4F4A1(G4S)3 (Fc fusion) chain 1: DVQLQESGGGLVQAGGSLRLSCAVSGLSFSSMGWFRQPPGKEREFVAAISLYSGSTYYADSVKGRFTISSDNAKSTVYLQMNSLKPEDAAVYFCAADRQRTWSTFYASRQATYNYWGQGTQVTVTSGGGGSGGGGSGGGGSGPPCPPCPAPEFLGGPSVFLFPPKPKDTLMISRTPEVTCVVVDVSQEDPEVQFNWYVDGVEVHNAKTKPREEQFNSTYRVVSVLTVLHQDWLNGKEYKCKVSNKGLPSSIEKTISKAKGQPREPQVYTLPPCQEEMTKNQVSLWCLVKGFYPSDIAVEWESNGQPENNYKTTPPVLDSDGSFFLYSRLTVDKSRWQEGNVFSCSVMHEALHNHYTQKSLSLSLGK chain 2: EVQLLESGGGLVQPGGSLRLSCAASGFTFGNYDMAWVRQAPGKRPEWVSSIDTGGDITHYADSVKGRFTISRDNAKNTLYLQMNSLRPEDTAVYWCATDEEYALGPNEFDYYGQGTLVTVSSGGGGSGGGGSGGGGSGPPCPPCPAPEFLGGPSVFLFPPKPKDTLMISRTPEVTCVVVDVSQEDPEVQFNWYVDGVEVHNAKTKPREEQFNSTYRVVSVLTVLHQDWLNGKEYKCKVSNKGLPSSIEKTISKAKGQPREPQVCTLPPSQEEMTKNQVSLSCAVKGFYPSDIAVEWESNGQPENNYKTTPPVLDSDGSFFLVSRLTVDKSRWQEGNVFSCSVMHEALHNHYTQKSLSLSLGK
70%	90 nM	CIgG4F4A1(RS) (Fc fusion) chain 1: GPPCPPCPAPEFLGGPSVFLFPPKPKDTLMISRTPEVTCVVVDVSQEDPEVQFNWYVDGVEVHNAKTKPREEQFNSTYRVVSVLTVLHQDWLNGKEYKCKVSNKGLPSSIEKTISKAKGQPREPQVYTLPPCQEEMTKNQVSLWCLVKGFYPSDIAVEWESNGQPENNYKTTPPVLDSDGSFFLYSRLTVDKSRWQEGNVFSCSVMHEALHNHYTQKSLSLSLGKRSDVQLQESGGGLVQAGGSLRLSCAVSGLSFSSMGWFRQPPGKEREFVAAISLYSGSTYYADSVKGRFTISSDNAKSTVYLQMNSLKPEDAAVYFCAADRQRTWSTFYASRQATYNYWGQGTQVTVTS chain 2: GPPCPPCPAPEFLGGPSVFLFPPKPKDTLMISRTPEVTCVVVDVSQEDPEVQFNWYVDGVEVHNAKTKPREEQFNSTYRVVSVLTVLHQDWLNGKEYKCKVSNKGLPSSIEKTISKAKGQPREPQVCTLPPSQEEMTKNQVSLSCAVKGFYPSDIAVEWESNGQPENNYKTTPPVLDSDGSFFLVSRLTVDKSRWQEGNVFSCSVMHEALHNHYTQKSLSLSLGKRSEVQLLESGGGLVQPGGSLRLSCAASGFTFGNYDMAWVRQAPGKRPEWVSSIDTGGDITHYADSVKGRFTISRDNAKNTLYLQMNSLRPEDTAVYWCATDEEYALGPNEFDYYGQGTLVTVSS
90%	17 nM	CIgG4F4A1(G4S)1 (Fc fusion) chain 1: GPPCPPCPAPEFLGGPSVFLFPPKPKDTLMISRTPEVTCVVVDVSQEDPEVQFNWYVDGVEVHNAKTKPREEQFNSTYRVVSVLTVLHQDWLNGKEYKCKVSNKGLPSSIEKTISKAKGQPREPQVYTLPPCQEEMTKNQVSLWCLVKGFYPSDIAVEWESNGQPENNYKTTPPVLDSDGSFFLYSRLTVDKSRWQEGNVFSCSVMHEALHNHYTQKSLSLSLGKGGGGSDVQLQESGGGLVQAGGSLRLSCAVSGLSFSSMGWFRQPPGKEREFVAAISLYSGSTYYADSVKGRFTISSDNAKSTVYLQMNSLKPEDAAVYFCAADRQRTWSTFYASRQATYNYWGQGTQVTVTS chain 2: GPPCPPCPAPEFLGGPSVFLFPPKPKDTLMISRTPEVTCVVVDVSQEDPEVQFNWYVDGVEVHNAKTKPREEQFNSTYRVVSVLTVLHQDWLNGKEYKCKVSNKGLPSSIEKTISKAKGQPREPQVCTLPPSQEEMTKNQVSLSCAVKGFYPSDIAVEWESNGQPENNYKTTPPVLDSDGSFFLVSRLTVDKSRWQEGNVFSCSVMHEALHNHYTQKSLSLSLGKGGGGSEVQLLESGGGLVQPGGSLRLSCAASGFTFGNYDMAWVRQAPGKRPEWVSSIDTGGDITHYADSVKGRFTISRDNAKNTLYLQMNSLRPEDTAVYWCATDEEYALGPNEFDYYGQGTLVTVSS
